From the supplement of paper PMC10567573

B1: KLHL20 (parent)
chain: YQDMIYAVGGRDDTTELSSAERYN

Variants of: B1
Experiment: protein stability index of a GFP-peptide fusion (GPS, HEK-293T) (PSI 1-6); higher = more stable
Conditions: c terminus: a fixed tail appended
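Also: lentivirally expressed fusions sorted by FACS into six bins by GFP to DsRed ratio, PSI derived from sequencing read proportions per bin multiplied by bin number.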

Protein stability index, by site and new letter:
A20: M 2.38; R 2.76; V 2.41; T 2.21; K 2.03; S 1.98; Q 2.91; I 2.05; Y 1.78; P 2.05; D 2.79; W 1.66; G 2.29; N 2.82; H 2.74; C 2.15; L 1.82; F 2.04; E 3.06
T14: I 2.09; S 2.48; M 2.01; K 2.17; V 2.25; W 1.56; G 2.47; Y 2.1; H 1.98; Q 2.35; R 2.13; N 2.36; P 2.89; L 2.48
L17: V 2; Y 2.03; R 2.19; M 2.35; F 2.14; C 2.52; D 2.12; T 2.89; A 2.44; E 2.58; P 2.49; K 2.41; G 2.82; H 2.32; Q 2.24; I 2.33; S 2.06; N 2.38; W 2.45
E16: A 1.95; W 2.23; R 2.51; Y 1.69; V 2.78; Q 2.36; T 2.17; D 2.34; N 2.38; C 1.5; K 1.85; G 2.28; P 2.05; I 2.07; M 2.08; S 1.91; H 2.5; L 2.67; F 1.75
T15: W 1.8; L 2.58; R 2.08; E 2.44; H 2.19; A 2.4; D 2.49; C 2.49; P 2.17; K 2.13; I 2.09; V 2.08; F 2.38; M 1.92; N 2.33; Q 3.13; G 2.21; S 2.46; Y 1.8
Y23: A 1.82
E21: M 2.75; I 1.95; Y 1.69; C 2.23; T 2.11; K 2.37; F 2.28; D 2.29; V 2.09; G 1.94; S 1.92; P 2.55; Q 1.95; N 1.89; L 1.95; W 1.58; R 1.75; A 2; H 2.04
R22: P 2.69; N 1.92; W 2.56; D 2.49; H 2.38; L 2.15; Q 2.77; F 2.48; S 2.48; M 2.03; Y 2.63; I 2.16; K 2.08; V 2.52; T 2.18; A 2.45; E 2.53; G 2.87; C 2.52
S19: A 2.87; G 2.32; Y 1.8; H 2.33; I 2.01; C 2.16; F 2.31; W 1.99; R 2.53; K 2.34; D 2.43; L 2.02; N 2.11; V 1.99; T 2.54; Q 2.25; P 2.66; M 2.01; E 2.45
S18: F 2.63; G 2.5; P 2.1; H 2.9; I 2.12; E 2.02; Y 2.22; A 2.03; R 1.99; K 2.25; L 2.76; C 2.07; W 2.27; V 2.32; D 2.43; N 2.66; M 2.07; Q 2.22; T 2.1
